Values quoted from earlier work in patent US20230127008A1, “STAT3-TARGETED BASE EDITOR THERAPEUTICS FOR THE TREATMENT OF MELANOMA AND OTHER CANCERS” (The Broad Institute, Inc., priority 2020, published 2023).

Tested on: DNA
Conditions: SpCas9 mutation relative to SEQ ID NO: 74; UniProtKB-Q99ZW2 entry

B1: 175-307 deletion: SpCas9 mutation relative to canonical SpCas9, SEQ ID NO: 74 (protein)
chain: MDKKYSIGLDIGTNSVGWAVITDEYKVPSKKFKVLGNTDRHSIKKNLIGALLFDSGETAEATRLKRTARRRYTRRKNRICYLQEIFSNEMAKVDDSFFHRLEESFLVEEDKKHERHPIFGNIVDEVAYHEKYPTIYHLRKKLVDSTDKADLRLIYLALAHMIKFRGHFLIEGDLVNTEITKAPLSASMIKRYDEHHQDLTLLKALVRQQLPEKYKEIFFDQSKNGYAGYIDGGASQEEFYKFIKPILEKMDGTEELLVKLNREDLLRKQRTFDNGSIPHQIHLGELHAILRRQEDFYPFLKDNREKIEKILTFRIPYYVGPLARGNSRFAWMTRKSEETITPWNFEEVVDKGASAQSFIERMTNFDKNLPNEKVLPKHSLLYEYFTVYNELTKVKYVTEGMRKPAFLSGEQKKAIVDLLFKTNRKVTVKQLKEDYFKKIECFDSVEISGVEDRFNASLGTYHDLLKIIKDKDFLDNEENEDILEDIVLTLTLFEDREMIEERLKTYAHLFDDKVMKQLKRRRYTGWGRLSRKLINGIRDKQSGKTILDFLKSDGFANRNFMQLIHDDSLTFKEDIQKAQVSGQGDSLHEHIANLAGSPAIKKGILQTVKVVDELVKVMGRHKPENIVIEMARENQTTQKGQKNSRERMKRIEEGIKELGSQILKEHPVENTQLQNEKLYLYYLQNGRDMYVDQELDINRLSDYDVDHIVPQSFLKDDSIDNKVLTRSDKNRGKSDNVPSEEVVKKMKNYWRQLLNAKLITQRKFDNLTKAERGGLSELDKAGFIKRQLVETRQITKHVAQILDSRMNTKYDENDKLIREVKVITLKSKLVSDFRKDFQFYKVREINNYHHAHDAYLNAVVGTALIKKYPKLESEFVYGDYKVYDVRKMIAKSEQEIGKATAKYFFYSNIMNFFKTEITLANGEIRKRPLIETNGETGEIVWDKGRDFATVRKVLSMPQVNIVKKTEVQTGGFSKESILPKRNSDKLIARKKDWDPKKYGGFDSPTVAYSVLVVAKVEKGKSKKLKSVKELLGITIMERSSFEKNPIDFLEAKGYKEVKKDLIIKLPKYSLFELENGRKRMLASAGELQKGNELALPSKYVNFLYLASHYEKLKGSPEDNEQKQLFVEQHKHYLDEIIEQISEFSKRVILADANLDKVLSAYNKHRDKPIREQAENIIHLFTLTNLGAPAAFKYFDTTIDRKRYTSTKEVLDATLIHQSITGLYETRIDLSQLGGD
modifications: Streptococcus pyogenes
- decreased DNA cleavage: About 50% decreased DNA cleavage
